# Source: PMC9352680, “A comprehensive thermodynamic model for RNA binding by the Saccharomyces cerevisiae Pumilio protein PUF4”
# T1: PUF4 RNA-binding domain (Saccharomyces cerevisiae, UniProt P25339 537-888)
# T1 sequence: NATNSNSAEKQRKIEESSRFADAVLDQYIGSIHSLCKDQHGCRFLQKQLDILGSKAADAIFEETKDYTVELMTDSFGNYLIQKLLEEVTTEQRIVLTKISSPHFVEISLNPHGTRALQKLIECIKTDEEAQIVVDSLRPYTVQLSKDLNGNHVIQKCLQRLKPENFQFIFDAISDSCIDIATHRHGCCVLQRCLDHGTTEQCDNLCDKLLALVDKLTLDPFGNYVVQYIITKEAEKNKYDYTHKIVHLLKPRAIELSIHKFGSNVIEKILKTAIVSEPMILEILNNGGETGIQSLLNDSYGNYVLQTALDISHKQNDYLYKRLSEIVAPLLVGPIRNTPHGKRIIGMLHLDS
# Target: T1, PUF4 RNA-binding domain
# Experiment: Mg; RNA-MaP; 20 mM Na-HEPES pH 7.4, 30 mM KOAc, 0.75 mM MgCl2, 0.1% Tween-20, 5% glycerol, 0.1 mg/mL BSA, 2 mM DTT; 25 C; 0.0125-409.6 nM protein
# Settings: tags: N-His6-TEV cleaved; C-SNAP kept, Cy3B-labelled; label: tethered on chip by stalled RNA polymerase
row,Binder,Kd [nM]
1,UCUCUUUGUAUCGUAUCUCUU (ssRNA) [Ic_S1_P4E.1_K4.1_C4.1_H4.1_A4.1_[A6C]_[T7G]_F4.1_T4.1],12.3
2,UCUCUUUGUAUUGUAUCUCUU (ssRNA) [Ib_S1_P4E.1_K4.1_C4.1_H4.1_A4.1_[A6T]_[T7G]_F4.1_T4.1],7.79
3,UCUCUUUCUAUAUUAUUAAGUCUCUU (ssRNA) [Id_ii_S1_P5E.3_K5.2_C5.2_[C-2T]_[T-1C]_H5.2_A5.1_F5.1_T5.2_[T11A]_[A12G]],582
4,UCUCUUCUUGUAUUAUUAUUUCUCUU (ssRNA) [Id_ii_S1_P5E.2_K5.1_C5.2_H5.1_A5.1_F5.1_T5.2_[A12T]],4.09
5,UCUCUUUGUAUUCUAUCUCUU (ssRNA) [Ib_S1_P4E.1_K4.1_C4.1_H4.1_A4.1_[A6T]_[T7C]_F4.1_T4.1],2.85
6,UCUCUUUGUAUAUUAUUAAAUCUCUU (ssRNA) [Id_ii_S1_P5E.3_K5.2_C5.2_[C-2T]_[T-1G]_H5.2_A5.1_F5.1_T5.2_[T11A]],0.467
7,UCUCUUUCUAUAUUAUUAACUCUCUU (ssRNA) [Id_ii_S1_P5E.3_K5.2_C5.2_[C-2T]_[T-1C]_H5.2_A5.1_F5.1_T5.2_[T11A]_[A12C]],581
8,UCUCUUGCUAUAUUAUUACCUCUCUU (ssRNA) [Id_ii_S1_P5E.3_K5.2_C5.2_[C-2G]_[T-1C]_H5.2_A5.1_F5.1_T5.2_[T11C]_[A12C]],340
9,UCUCUUUGUAUAUUAUUAACUCUCUU (ssRNA) [Id_ii_S1_P5E.3_K5.2_C5.2_[C-2T]_[T-1G]_H5.2_A5.1_F5.1_T5.2_[T11A]_[A12C]],0.55
10,UCUCUUUGUAUAUUAUUAAUUCUCUU (ssRNA) [Id_ii_S1_P5E.3_K5.2_C5.2_[C-2T]_[T-1G]_H5.2_A5.1_F5.1_T5.2_[T11A]_[A12T]],0.615
11,UCUCUUUGUAUAUUAUUAUUUCUCUU (ssRNA) [Id_ii_S1_P5E.3_K5.2_C5.2_[C-2T]_[T-1G]_H5.2_A5.1_F5.1_T5.2_[A12T]],0.826
12,UCUCUUUAUAUAUUAUUACCUCUCUU (ssRNA) [Id_ii_S1_P5E.3_K5.2_C5.2_[C-2T]_[T-1A]_H5.2_A5.1_F5.1_T5.2_[T11C]_[A12C]],14.1
13,UCUCUUACUAUAUUAUUACAUCUCUU (ssRNA) [Id_ii_S1_P5E.3_K5.2_C5.2_[C-2A]_[T-1C]_H5.2_A5.1_F5.1_T5.2_[T11C]],424
14,UCUCUUUCUAUAUUAUUACGUCUCUU (ssRNA) [Id_ii_S1_P5E.3_K5.2_C5.2_[C-2T]_[T-1C]_H5.2_A5.1_F5.1_T5.2_[T11C]_[A12G]],494
15,UCUCUUUUUAUAUUAUUAACUCUCUU (ssRNA) [Id_ii_S1_P5E.3_K5.2_C5.2_[C-2T]_H5.2_A5.1_F5.1_T5.2_[T11A]_[A12C]],524
16,UCUCUUUUUAUAUUAUUAUCUCUCUU (ssRNA) [Id_ii_S1_P5E.3_K5.2_C5.2_[C-2T]_H5.2_A5.1_F5.1_T5.2_[A12C]],550
17,UCUCUUGCUAUAUUAUUAUUUCUCUU (ssRNA) [Id_ii_S1_P5E.3_K5.2_C5.2_[C-2G]_[T-1C]_H5.2_A5.1_F5.1_T5.2_[A12T]],391
18,UCUCUUUAUAUAUUAUUAAAUCUCUU (ssRNA) [Id_ii_S1_P5E.3_K5.2_C5.2_[C-2T]_[T-1A]_H5.2_A5.1_F5.1_T5.2_[T11A]],25.4
19,UCUCUUGUUAUAUUAUUACUUCUCUU (ssRNA) [Id_ii_S1_P5E.3_K5.2_C5.2_[C-2G]_H5.2_A5.1_F5.1_T5.2_[T11C]_[A12T]],13.4
20,UCUCUUACUAUAUUAUUAACUCUCUU (ssRNA) [Id_ii_S1_P5E.3_K5.2_C5.2_[C-2A]_[T-1C]_H5.2_A5.1_F5.1_T5.2_[T11A]_[A12C]],706
21,UCUCUUGUUAUAUUAUUACCUCUCUU (ssRNA) [Id_ii_S1_P5E.3_K5.2_C5.2_[C-2G]_H5.2_A5.1_F5.1_T5.2_[T11C]_[A12C]],9

row,Binder,Kd [nM]
1,UCUCUUUUUAUAUUAUUAAUUCUCUU (ssRNA) [Id_ii_S1_P5E.3_K5.2_C5.2_[C-2T]_H5.2_A5.1_F5.1_T5.2_[T11A]_[A12T]],457
2,UCUCUUUCUAUAUUAUUACUUCUCUU (ssRNA) [Id_ii_S1_P5E.3_K5.2_C5.2_[C-2T]_[T-1C]_H5.2_A5.1_F5.1_T5.2_[T11C]_[A12T]],390
3,UCUCUUUCUAUAUUAUUAUCUCUCUU (ssRNA) [Id_ii_S1_P5E.3_K5.2_C5.2_[C-2T]_[T-1C]_H5.2_A5.1_F5.1_T5.2_[A12C]],455
4,UCUCUUGUUAUAUUAUUAGUUCUCUU (ssRNA) [Id_ii_S1_P5E.3_K5.2_C5.2_[C-2G]_H5.2_A5.1_F5.1_T5.2_[T11G]_[A12T]],15.3
5,UCUCUUUUUAUAUUAUUACAUCUCUU (ssRNA) [Id_ii_S1_P5E.3_K5.2_C5.2_[C-2T]_H5.2_A5.1_F5.1_T5.2_[T11C]],497
6,UCUCUUGUUAUAUUAUUAUCUCUCUU (ssRNA) [Id_ii_S1_P5E.3_K5.2_C5.2_[C-2G]_H5.2_A5.1_F5.1_T5.2_[A12C]],16.3
7,UCUCUUUUUAUAUUAUUACUUCUCUU (ssRNA) [Id_ii_S1_P5E.3_K5.2_C5.2_[C-2T]_H5.2_A5.1_F5.1_T5.2_[T11C]_[A12T]],414
8,UCUCUUGCUAUAUUAUUACAUCUCUU (ssRNA) [Id_ii_S1_P5E.3_K5.2_C5.2_[C-2G]_[T-1C]_H5.2_A5.1_F5.1_T5.2_[T11C]],509
9,UCUCUUUAUAUAUUAUUAGCUCUCUU (ssRNA) [Id_ii_S1_P5E.3_K5.2_C5.2_[C-2T]_[T-1A]_H5.2_A5.1_F5.1_T5.2_[T11G]_[A12C]],13.7
10,UCUCUUUGUAUAUUAUUAGCUCUCUU (ssRNA) [Id_ii_S1_P5E.3_K5.2_C5.2_[C-2T]_[T-1G]_H5.2_A5.1_F5.1_T5.2_[T11G]_[A12C]],0.703
11,UCUCUUUAUAUAUUAUUAGUUCUCUU (ssRNA) [Id_ii_S1_P5E.3_K5.2_C5.2_[C-2T]_[T-1A]_H5.2_A5.1_F5.1_T5.2_[T11G]_[A12T]],22.2
12,UCUCUUUGUAUAUUAUUAUCUCUCUU (ssRNA) [Id_ii_S1_P5E.3_K5.2_C5.2_[C-2T]_[T-1G]_H5.2_A5.1_F5.1_T5.2_[A12C]],0.576
13,UCUCUUUAUAUAUUAUUAUCUCUCUU (ssRNA) [Id_ii_S1_P5E.3_K5.2_C5.2_[C-2T]_[T-1A]_H5.2_A5.1_F5.1_T5.2_[A12C]],21
14,UCUCUUUUUAUAUUAUUACGUCUCUU (ssRNA) [Id_ii_S1_P5E.3_K5.2_C5.2_[C-2T]_H5.2_A5.1_F5.1_T5.2_[T11C]_[A12G]],434
15,UCUCUUUAUAUAUUAUUAAUUCUCUU (ssRNA) [Id_ii_S1_P5E.3_K5.2_C5.2_[C-2T]_[T-1A]_H5.2_A5.1_F5.1_T5.2_[T11A]_[A12T]],21
16,UCUCUUACUAUAUUAUUAAAUCUCUU (ssRNA) [Id_ii_S1_P5E.3_K5.2_C5.2_[C-2A]_[T-1C]_H5.2_A5.1_F5.1_T5.2_[T11A]],626
17,UCUCUUUAUAUAUUAUUACGUCUCUU (ssRNA) [Id_ii_S1_P5E.3_K5.2_C5.2_[C-2T]_[T-1A]_H5.2_A5.1_F5.1_T5.2_[T11C]_[A12G]],18.1
18,UCUCUUUUUAUAUUAUUAUUUCUCUU (ssRNA) [Id_ii_S1_P5E.3_K5.2_C5.2_[C-2T]_H5.2_A5.1_F5.1_T5.2_[A12T]],181
19,UCUCUUUAUAUAUUAUUACUUCUCUU (ssRNA) [Id_ii_S1_P5E.3_K5.2_C5.2_[C-2T]_[T-1A]_H5.2_A5.1_F5.1_T5.2_[T11C]_[A12T]],13.3
20,UCUCUUUAUAUAUUAUUAUUUCUCUU (ssRNA) [Id_ii_S1_P5E.3_K5.2_C5.2_[C-2T]_[T-1A]_H5.2_A5.1_F5.1_T5.2_[A12T]],17.6
21,UCUCUUUCUAUAUUAUUAUUUCUCUU (ssRNA) [Id_ii_S1_P5E.3_K5.2_C5.2_[C-2T]_[T-1C]_H5.2_A5.1_F5.1_T5.2_[A12T]],402

row,Binder,Kd [nM]
1,UCUCUUACUAUAUUAUUACCUCUCUU (ssRNA) [Id_ii_S1_P5E.3_K5.2_C5.2_[C-2A]_[T-1C]_H5.2_A5.1_F5.1_T5.2_[T11C]_[A12C]],520
2,UCUCUUGUUAUAUUAUUACGUCUCUU (ssRNA) [Id_ii_S1_P5E.3_K5.2_C5.2_[C-2G]_H5.2_A5.1_F5.1_T5.2_[T11C]_[A12G]],22
3,UCUCUUGCUAUAUUAUUACGUCUCUU (ssRNA) [Id_ii_S1_P5E.3_K5.2_C5.2_[C-2G]_[T-1C]_H5.2_A5.1_F5.1_T5.2_[T11C]_[A12G]],549
4,UCUCUUUCUAUAUUAUUACAUCUCUU (ssRNA) [Id_ii_S1_P5E.3_K5.2_C5.2_[C-2T]_[T-1C]_H5.2_A5.1_F5.1_T5.2_[T11C]],630
5,UCUCUUUUUAUAUUAUUAGCUCUCUU (ssRNA) [Id_ii_S1_P5E.3_K5.2_C5.2_[C-2T]_H5.2_A5.1_F5.1_T5.2_[T11G]_[A12C]],160
6,UCUCUUUCUAUAUUAUUAAAUCUCUU (ssRNA) [Id_ii_S1_P5E.3_K5.2_C5.2_[C-2T]_[T-1C]_H5.2_A5.1_F5.1_T5.2_[T11A]],557
7,UCUCUUGUUAUAUUAUUAAAUCUCUU (ssRNA) [Id_ii_S1_P5E.3_K5.2_C5.2_[C-2G]_H5.2_A5.1_F5.1_T5.2_[T11A]],17.7
8,UCUCUUUAUAUAUUAUUAACUCUCUU (ssRNA) [Id_ii_S1_P5E.3_K5.2_C5.2_[C-2T]_[T-1A]_H5.2_A5.1_F5.1_T5.2_[T11A]_[A12C]],15.9
9,UCUCUUACUAUAUUAUUAAUUCUCUU (ssRNA) [Id_ii_S1_P5E.3_K5.2_C5.2_[C-2A]_[T-1C]_H5.2_A5.1_F5.1_T5.2_[T11A]_[A12T]],453
10,UCUCUUGCUAUAUUAUUAACUCUCUU (ssRNA) [Id_ii_S1_P5E.3_K5.2_C5.2_[C-2G]_[T-1C]_H5.2_A5.1_F5.1_T5.2_[T11A]_[A12C]],346
11,UCUCUUUGUAUCAUAUCUCUU (ssRNA) [Ic_S1_P4E.1_K4.1_C4.1_H4.1_A4.1_[A6C]_[T7A]_F4.1_T4.1],1.04
12,UCUCUUGCUAUAUUAUUAUCUCUCUU (ssRNA) [Id_ii_S1_P5E.3_K5.2_C5.2_[C-2G]_[T-1C]_H5.2_A5.1_F5.1_T5.2_[A12C]],307
13,UCUCUUCUUGUAUUAUUAUCUCUCUU (ssRNA) [Id_ii_S1_P5E.2_K5.1_C5.2_H5.1_A5.1_F5.1_T5.2_[A12C]],5.07
14,UCUCUUUGUAUCCUAUCUCUU (ssRNA) [Ic_S1_P4E.1_K4.1_C4.1_H4.1_A4.1_[A6C]_[T7C]_F4.1_T4.1],4.4
15,UCUCUUUGUAUGAUAUCUCUU (ssRNA) [Ib_S1_P4E.1_K4.1_C4.1_H4.1_A4.1_[A6G]_[T7A]_F4.1_T4.1],4.57
16,UCUCUUGCUAUAUUAUUAAUUCUCUU (ssRNA) [Id_ii_S1_P5E.3_K5.2_C5.2_[C-2G]_[T-1C]_H5.2_A5.1_F5.1_T5.2_[T11A]_[A12T]],343
17,UCUCUUUGUAUUAUGAUCUCUU (ssRNA) [Ia_S1_P5E.1_K5.1_C5.1_H5.1_A5.1_F5.1_[T9G]_T5.1],15.3
18,UCUCUUUCUAUAUUAUUAAUUCUCUU (ssRNA) [Id_ii_S1_P5E.3_K5.2_C5.2_[C-2T]_[T-1C]_H5.2_A5.1_F5.1_T5.2_[T11A]_[A12T]],615
19,UCUCUUUCUAUAUUAUUACCUCUCUU (ssRNA) [Id_ii_S1_P5E.3_K5.2_C5.2_[C-2T]_[T-1C]_H5.2_A5.1_F5.1_T5.2_[T11C]_[A12C]],388
20,UCUCUUACUAUAUUAUUACUUCUCUU (ssRNA) [Id_ii_S1_P5E.3_K5.2_C5.2_[C-2A]_[T-1C]_H5.2_A5.1_F5.1_T5.2_[T11C]_[A12T]],486
